Measurements from US20250283030A1, “Biosynthesis of Phenylpropanoid Compounds” (BGENE GENETICS, priority 2021, published 2025).
Entries after “also recorded” stand apart in the source; their conditions may differ.

Experiments:
[1] = system: wild-type Pseudomonas putida AroF-I enzyme; experiment: Enzymatic activity assay (PEP consumption by HPLC), inhibition by tyrosine; type: biochemical; details: 1 mM tyrosine, 300 μM PEP, 300 μM E4P, 60 minutes at 30° C., FIG. 1
Protocol: The activity of the enzymes is measured by monitoring the disappearance of the substrate using HPLC (High Pressure Liquid Chromatography) detection. The reaction is performed in a final volume of 200 μl with 40 mM of phosphate buffer, pH 7, 300 μM of phospho(enol)pyruvate (PEP), 20 μg of purified enzyme, 1 mM of tyrosine (or another aromatic amino acid) or 3 μM of HCl, the volume being completed with ultrapure water. After pre-incubation for 2 minutes at 30° C., the reaction is initiated by adding 300 μM of erythrose-4-phosphate […]) and the reaction mixture is incubated for 60 minutes at 30° C. Finally, the mixture is heated for 5 minutes at 80° C. in order to stop the reaction and precipitate the proteins. The enzymatic activity assays are firstly centrifuged for 10 minutes at 15 000×g in order to precipitate the proteins. The supernatant obtained is filtered over a 0.22 μm membrane before HPLC analysis. The method used is described below: • System: Agilent 1100 (Agilent) • Column: Luna OMEGA polar C18 (Phenomenex) • Mobile phase: 1 mM phosphoric acid • Flow rate: 0.3 ml/min • UV detection: 220 nm • Injection: 5 μl • Duration of analysis: 15 minutes In order to quantify the amount of PEP present in the samples, a series of standards is analyzed, with PEP concentrations from 0.1 mM to 1 mM.

AroF-I enzyme = experiment: Enzymatic activity assay (PEP consumption by HPLC) of AroF-I mutants with or without tyrosine; type: biochemical, Pseudomonas putida; details: for resistance of the enzyme to inhibition by tyrosine: 1 mM tyrosine, PEP consumed compared to AroF-I WT, FIG. 2-4; for enzymatic activity (PEP consumed): in the presence or absence of tyrosine, FIG. 3
Protocol: In order to express and purify the AroF-I enzyme and the mutants derived therefrom, the corresponding genes are cloned in a pET28_b(+) plasmid with a His tag grafted to the N-terminal part of the protein (upstream of the gene's ATG).
The activity of the enzymes is measured by monitoring the disappearance of the substrate using HPLC (High Pressure Liquid Chromatography) detection.
The reaction is performed in a final volume of 200 μl with 40 mM of phosphate buffer, pH 7, 300 μM of phospho(enol)pyruvate (PEP), 20 μg of purified enzyme, 1 mM of tyrosine (or another aromatic amino acid) or 3 μM of HCl, the volume being completed with ultrapure water.
After pre-incubation for 2 minutes at 30° C., the reaction is initiated by adding 300 μM of erythrose-4-phosphate (E4P) and the reaction mixture is incubated for 60 minutes at 30° C.
Finally, the mixture is heated for 5 minutes at 80° C. in order to stop the reaction and precipitate the proteins.
The enzymatic activity assays are firstly centrifuged for 10 minutes at 15 000×g in order to precipitate the proteins. The supernatant obtained is filtered over a 0.22 μm membrane before HPLC analysis.
The method used is described below: • System: Agilent 1100 (Agilent) • Column: Luna OMEGA polar C18 (Phenomenex) • Mobile phase: 1 mM phosphoric acid • Flow rate: 0.3 ml/min • UV detection: 220 nm • Injection: 5 μl • Duration of analysis: 15 minutes
In order to quantify the amount of PEP present in the samples, a series of standards is analyzed, with PEP concentrations from 0.1 mM to 1 mM.

Row | Molecule | activity of the wild-type AroF-I enzyme in the presence of tyrosine [1] | resistance of the enzyme to inhibition by tyrosine (AroF-I enzyme) | enzymatic activity (PEP consumed) (AroF-I enzyme)
1 | N[C@@H](Cc1ccc(O)cc1)C(=O)O [tyrosine] | inhibited |  | 
2 | P160L/Q164A: Pseudomonas putida AroF-I DAHP synthase with P160L/Q164A double mutation, SEQ ID NO:3 (protein, listed as Pseudomonas putida) LAAGTRDLTSNTMADLPIDDLNVASNETLITPDQLKKEIPLSAKALQTVTAGREVVRNILDGKDHRLFVVVGPCSIHDIKAAHEYAERLKVLAEEVSDTLYLVMRVYFEKPRTTVGWKGLINDPYLDDSFKIQDGLHIGRKLLLDLAEMGLPTATEALDLISPAYLQDLISWSAIGARTTESQTHREMASGLSSAVGFKNGTDGGLTVAINALQSVSKPHRFLGINQEGGVSIVTTKGNPYGHVVLRGGNGKPNYDSVSVALCEQDLAKAKIKANIMVDCSHANSNKDPALQPLVMENVANQILEGNQSIIGLMVESHLNWGCQSIPKNLDDLQYGVSITDACIDWSATEKTLRSMHAKLKDVLPQRKRGLAAGTRDLTSNTMADLPIDDLNVASNETLITPDQLKKEIPLSAKALQTVTAGREVVRNILDGKDHRLFVVVGPCSIHDIKAAHEYAERLKVLAEEVSDTLYLVMRVYFEKPRTTVGWKGLINDPYLDDSFKIQDGLHIGRKLLLDLAEMGLPTATEALDLISPAYLQDLISWSAIGARTTESQTHREMASGLSSAVGFKNGTDGGLTVAINALQSVSKPHRFLGINQEGGVSIVTTKGNPYGHVVLRGGNGKPNYDSVSVALCEQDLAKAKIKANIMVDCSHANSNKDPALQPLVMENVANQILEGNQSIIGLMVESHLNWGCQSIPKNLDDLQYGVSITDACIDWSATEKTLRSMHAKLKDVLPQRKRG |  | slightly improved | 
3 | P160L: Pseudomonas putida AroF-I DAHP synthase with P160L mutation, SEQ ID NO:2 (protein, listed as Pseudomonas putida) LAAGTRDLTSNTMADLPIDDLNVASNETLITPDQLKKEIPLSAKALQTVTAGREVVRNILDGKDHRLFVVVGPCSIHDIKAAHEYAERLKVLAEEVSDTLYLVMRVYFEKPRTTVGWKGLINDPYLDDSFKIQDGLHIGRKLLLDLAEMGLPTATEALDLISPQYLQDLISWSAIGARTTESQTHREMASGLSSAVGFKNGTDGGLTVAINALQSVSKPHRFLGINQEGGVSIVTTKGNPYGHVVLRGGNGKPNYDSVSVALCEQDLAKAKIKANIMVDCSHANSNKDPALQPLVMENVANQILEGNQSIIGLMVESHLNWGCQSIPKNLDDLQYGVSITDACIDWSATEKTLRSMHAKLKDVLPQRKRG |  | partially resistant | 
4 | P160L/G191K: Pseudomonas putida AroF-I DAHP synthase with P160L/G191K double mutation (protein) LAAGTRDLTSNTMADLPIDDLNVASNETLITPDQLKKEIPLSAKALQTVTAGREVVRNILDGKDHRLFVVVGPCSIHDIKAAHEYAERLKVLAEEVSDTLYLVMRVYFEKPRTTVGWKGLINDPYLDDSFKIQDGLHIGRKLLLDLAEMGLPTATEALDLISPQYLQDLISWSAIGARTTESQTHREMASKLSSAVGFKNGTDGGLTVAINALQSVSKPHRFLGINQEGGVSIVTTKGNPYGHVVLRGGNGKPNYDSVSVALCEQDLAKAKIKANIMVDCSHANSNKDPALQPLVMENVANQILEGNQSIIGLMVESHLNWGCQSIPKNLDDLQYGVSITDACIDWSATEKTLRSMHAKLKDVLPQRKRG |  |  | no longer has any activity
5 | P160L/S193A: Pseudomonas putida AroF-I DAHP synthase with P160L/S193A double mutation, SEQ ID NO:4 (protein, listed as Pseudomonas putida) LAAGTRDLTSNTMADLPIDDLNVASNETLITPDQLKKEIPLSAKALQTVTAGREVVRNILDGKDHRLFVVVGPCSIHDIKAAHEYAERLKVLAEEVSDTLYLVMRVYFEKPRTTVGWKGLINDPYLDDSFKIQDGLHIGRKLLLDLAEMGLPTATEALDLISPQYLQDLISWSAIGARTTESQTHREMASGLASAVGFKNGTDGGLTVAINALQSVSKPHRFLGINQEGGVSIVTTKGNPYGHVVLRGGNGKPNYDSVSVALCEQDLAKAKIKANIMVDCSHANSNKDPALQPLVMENVANQILEGNQSIIGLMVESHLNWGCQSIPKNLDDLQYGVSITDACIDWSATEKTLRSMHAKLKDVLPQRKRG |  | virtually completely resistant; also recorded: synergistic effect | restored virtually all the enzymatic activity
